Test results as given in patent US9872921B2, “DE-N-acetyl sialic acid antigens, antibodies thereto, and methods of use in cancer therapy” (priority 2004, dated 2018).

Columns and labels:
SEAM 3 = assay: Inhibition ELISA of SEAM 3 binding to plate-coated N-Pr NmB PS-dodecylamine; parameters: species or system murine; conditions: dilution required to decrease absorbance at 405 nm by 50%
Procedure: The ability of colominic acid and N-Pr NmB PS to inhibit binding of SEAM 3 to in an ELISA was compared to sialidase A-treated colominic acid and N-Pr NmB PS prepared as described above. The wells of microtiter plates (Immulon 2; Dynatech Laboratories, Inc.) were coated with N-Pr NmB PS-dodecylamine (prepared as described in Example 1) in phosphate buffered saline (PBS; pH 7.4). The plates were incubated overnight at 4° C. After washing three times with PBS, the wells were filled with 200 μl of blocking buffer (PBS containing 1% bovine serum albumin [BSA, Sigma] and 0.1% sodium azide; [pH 7.4]) and then incubated for 30-60 min at room temperature to block nonspecific binding sites. The plates were washed three times with PBS buffer. Inhibitors were serially diluted in blocking buffer on the plate in total final volume of 50 μl. SEAM 3 diluted in blocking buffer to a concentration that produced an OD405 nm of 0.5 when developed with substrate was added to the wells in a volume of 50 μl. The plates were covered and incubated overnight at 4° C. […] The absorbance at 405 nm after 30 minutes incubation at ambient temperature was measured using a BioRad Model 550 microtiter plate reader. The relative activity of each sample was compared by determining the dilution required to decrease the absorbance at 405 nm by 50% of the absorbance observed in wells containing SEAM 3 but no inhibitor.

SK-MEL 28 cells = assay: Cell cycle analysis by propidium iodide staining and flow cytometry; assay type: cell-based, human; conditions: 100 nM, 48 h
Procedure: To further assess the affect of SEAM 3 mAb on cell growth, the stage of the cell cycle after treatment with SEAM 3 was determined. In this experiment, the cells were stained with the fluorescent DNA binding dye propidium iodide to characterize cell populations in various stages of the cell cycle and the effects of adding control antibodies, nocodazole (a drug that arrest the cells in mitosis) and SEAM 3.
Approximately 10^5 SK-MEL 28 cells were plated on a 96-well tissue culture plate and allowed to adhere. After 24 h the medium was replaced with one that had either antibody or drug and incubated for a further 48 h. Cells were spun (to collect any cells that may have detached), and fixed in 70% ice-cold methanol (added drop wise) for at least 30 minutes at 4° C. The cells were washed twice with PBS, and to ensure that only DNA was stained, the fixed cells were treated with ribonuclease I (100 μg/ml, source) for 30 minutes at 37° C. Propidium iodide (50 μg/ml) was added and samples were analyzed using a Guava EasyCyte flow cytometer.

NmB strain M7 = assay: Fluorescence microscopy of SEAM 12 binding to capsule PS on NmB strain M7 grown with N-acyl mannosamine supplements; parameters: species or system Neisseria meningitidis
From the text: The trihaloacetylated mannosamine was incorporated into NmB PS by inoculating colonies of NmB strain M7 grown overnight at 37 degrees C. in 5% carbon dioxide on a freshly streaked chocolate agar plate to an OD620 nm of 0.1 in Muller-Hinton broth supplemented with 5 millimolar N-acyl mannosamine For example, N-acetyl, -trichloroacetyl, -trifluoroacetyl mannosamine. Stain M7 contains a transposon the interrupts the gene encoding N-acetyl-D-glucosamine-6-phosphate 2 epimerase (Swartley et al. 1994, J. Bact. 176:1530; Swartley et al. 1996, J. Bact. 178:4052). As a result, the bacteria cannot synthesize capsule PS unless the growth media was supplemented with N-acetyl mannosamine Therefore, the N-acyl content of the capsule PS synthesized in this system can be determined by the N-acyl or mixture of N-acyl mannosamine provided in the growth media. The bacteria were grown at 37 degrees C. […]).
There is no binding of SEAM 12 to M7 without N-acyl mannosamine or with N-trichloroacetyl mannosamine supplement (FIG. 37, panels B and C). […] However, SEAM 12 does bind to the capsule PS containing N-trifluoroacetyl groups (FIG. 37, panel D, shaded gray in the figure) since the trifluoromethyl group is nearly the same size as the methyl group of the N-acetyl derivative.

[1] = system: polysialic acid antigens expressed by the human neuronal cell line CHP-134; conditions: cited from earlier work

SEAM 3, sequence (as listed by the source): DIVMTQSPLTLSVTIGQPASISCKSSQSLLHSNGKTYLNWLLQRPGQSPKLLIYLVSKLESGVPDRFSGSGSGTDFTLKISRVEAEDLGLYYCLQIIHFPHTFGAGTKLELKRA
SEAM 3, sequence (as listed by the source): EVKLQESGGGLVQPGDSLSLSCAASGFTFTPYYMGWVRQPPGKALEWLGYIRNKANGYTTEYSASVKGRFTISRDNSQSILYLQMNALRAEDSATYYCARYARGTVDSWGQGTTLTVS

poly alpha (2→8) N-acetyl neuraminic acid [colominic acid]
activity for binding to SEAM 3, fold less than N-Pr NmB PS (SEAM 3): approximately 200 fold

COC(=O)Nc1nc2cc(C(=O)c3cccs3)ccc2[nH]1 [nocodazole, reference compound]
cells arrested in G2/M phase (SK-MEL 28 cells): approximately 50%

B1: SEAM 12: anti-N-Pr NmB PS murine mAb (IgG2a) (antibody, V domains shown)
VH: QVKLEQSGGGLVRPGNSLKLSCVTSGFTFINYRMHWLRQPPGKRLEWIAVITDNSDNYVVNYAESVKGRFAISRDDSKSSVYLEMNRLREEDTATYFCSRSRRSFFDYWGQGTTLTVS
VL: DIVMTQTTVIMSASPGEKVTMTCSASSSVTYMHWYQQKSRTSPKLWIYDTSKLASGVPGRFSGSGSGNSYALTISSMEPEDVATYYCFQGSGYPLTFGAGTKLGLKRA
modifications: mouse
SEAM 12 binding to capsule PS (NmB strain M7; capsule PS containing N-trifluoroacetyl groups): does bind
SEAM 12 binding to M7 (NmB strain M7; growth media supplemented with N-acetyl mannosamine): binding is indicated by the presence of red fluorescence
SEAM 12 binding to M7 (NmB strain M7; with N-trichloroacetyl mannosamine supplement): no binding
SEAM 12 binding to M7 (NmB strain M7; without N-acyl mannosamine): no binding

B2: SEAM 35: anti-N-Pr NmB PS murine mAb (IgG2a) (antibody, V domains shown)
VH: EVKLEESGGGLVQPGGSLSLSCAASGFTFTDYYLSWVRQPPGKALEWLGFIRNTANGYTTEYSASVKGRFTIARDNSQSILTLQMNALRAEDSATYYCARWSRRAMDYWGQGTSVTVS
VL: DIVMTQSPISMSMSLGERVTLSCKASENVGTYVSWYQQKPEQSPKLLISGASNRYTGVPDRFTGSGSATDFTLTISSVQAEDLADYHCGQSYNYPYTFGGGTKLEIKRA
modifications: mouse
cross-reactivity with polysialic acid antigens expressed by CHP-134 [1]: greater cross-reactivity
